We go through five compounds from patent US20130116195A1, “Binding ligand linked drug delivery conjugates of tubulysins” (priority 2009, published 2013).

The test system of series [1] is folate receptor-positive KB cells. As to the kind of experiment: Inhibition of Cellular DNA Synthesis (3H-thymidine incorporation cytotoxicity assay). Particulars: 2 hour pulse and 72 hour chase. It counts as cell-based. As for the experimental part: METHOD: Inhibition of Cellular DNA Synthesis. The compounds described herein were evaluated using an in vitro cytotoxicity assay that predicts the ability of the drug to inhibit the growth of folate receptor-positive KB cells. The compounds were comprised of folate linked to a respective chemotherapeutic drug, as prepared according to the protocols described herein. The KB cells were exposed for up to 7 h at 37° C. to the indicated concentrations of folate-drug conjugate in the absence or presence of at least a 100-fold excess of folic acid. The cells were then rinsed once with fresh culture medium and incubated in fresh culture medium for 72 hours at 37° C. Cell viability was assessed using a ^3H-thymidine incorporation assay. For compounds described herein, dose-dependent cytotoxicity was generally measurable, and in most cases, the IC50 values (concentration of drug conjugate required to reduce ^3H-thymidine incorporation into newly synthesized DNA by 50%) were in the low nanomolar range.
METHOD: In vitro test against the various cancer cell lines. Cells are heavily seeded in 24-well Falcon plates and allowed to form nearly confluent monolayers overnight. Thirty minutes prior to the addition of the test compound, spent medium is aspirated from all wells and replaced with fresh folate-deficient RPMI medium (FFRPMI). A subset of wells are designated to receive media containing 100 μM folic acid. The cells in the designated wells are used to determine the targeting specificity. […] Following one rinse with 1 mL of fresh FFRPMI containing 10% heat-inactivated fetal calf serum, each well receives 1 mL of medium containing increasing concentrations of test compound (4 wells per sample) in the presence or absence of 100 μM free folic acid as indicated. Treated cells are pulsed for 2 h at 37° C., rinsed 4 times with 0.5 mL of media, and then chased in 1 mL of fresh medium up to 70 h. Spent medium is aspirated from all wells and replaced with fresh medium containing 5 μCi/mL ^3H-thymidine. Following a further 2 h 37° C. incubation, cells are washed 3 times with 0.5 mL of PBS and then treated with 0.5 mL of ice-cold 5% trichloroacetic acid per well. After 15 min, the trichloroacetic acid is aspirated and the cell material solubilized by the addition of 0.5 mL of 0.25 N sodium hydroxide for 15 min. A 450 μL aliquot of each solubilized sample is transferred to a scintillation vial containing 3 mL of Ecolume scintillation cocktail and then counted in a liquid scintillation counter. Final tabulated results are expressed as the percentage of ^3H-thymidine incorporation relative to untreated controls.
(Incorporation of labelled thymidine or its analogues reports DNA synthesis.)

Series [2] in a line: Serum binding (30K NMWL filtration/HPLC-UV), mouse serum. The format is in vitro ADME. The following applies: 50 μM test article concentration in serum, n = 3, read-out: Mouse Serum % Bound (converted). As for the experimental part: (§1) METHOD: Serum binding against different species. Compounds are tested with 30K NMWL, subjected to Microcon filtration (10,000 g for 30 minutes), and compounds are detected by HPLC. […] There was two times the amount of free EC0531 in serum compared to EC0305.

Series [3] can be described thus: Serum binding (30K NMWL filtration/HPLC-UV), human serum. The format is in vitro ADME. The following applies: human; 50 μM test article concentration in serum; n = 3; read-out: Human Serum % Bound (converted). As for the experimental part: as §1
Series [4] in a line: Toxicity as measured by weight loss. The format is in vivo, mice. The following applies: for tolerability (percent weight change): FIG. 6, 3 μmol/kg TIW, female mice. On the procedure:
METHOD: Additional In vivo antitumor method. Four to six week-old female nu/nu mice (Charles River, Wilmington, Mass.) were maintained on a standard 12 h light-dark cycle and fed ad libitum with folate-deficient chow (Harlan diet #TD00434, Harlan Teklad, Madison, Wis.) for the duration of the experiment. KB cells (1×10^6 per nu/nu mouse) in 100 μL were injected in the subcutis of the dorsal medial area. Mice were divided into groups of five, and test articles were freshly prepared and injected through the lateral tail vein under sterile conditions in a volume of 200 μL of phosphate-buffered saline (PBS). Intravenous (i.v.) treatments were typically initiated on approximately 9 post-tumor cell implantation when the KB tumors were approximately 100-200 mm^3 in volume. The mice in the control groups received no treatment. Growth of each s.c. tumor was followed by measuring the tumor three times per week during treatment and twice per week thereafter until a volume of 1500 mm^3 was reached. Tumors were measured in two perpendicular directions using Vernier calipers, and their volumes were calculated as 0.5×L×W^2, where L=measurement of longest axis in mm and W=measurement of axis perpendicular to L in mm. As a general measure of toxicity, changes in body weights were determined on the same schedule as tumor volume measurements. Survival of animals was monitored daily. Animals that were moribund (or unable to reach food or water) were euthanized by CO2 asphyxiation. All in vivo studies were performed in accordance with the American Accreditation Association of Laboratory Animal Care guidelines.
METHOD: Toxicity as Measured by Weight Loss. The percentage weight change of the mice was determined in mice (5 mice/group) on selected days post-tumor inoculation (PTI), and graphed.

Entries after “also recorded” stand apart in the source; their conditions may differ.

Turning to `CCC(C)[C@H](NC(=O)[C@H]1CCCCN1C)C(=O)N(COC(=O)CC(C)C)[C@H](C[C@@H](OC(C)=O)c1nc(C(=O)N[C@@H](Cc2ccc(O)cc2)C[C@H](C)C(=O)NNC(=O)OCCSSC[C@H](NC(=O)[C@H](CCC(=O)NC[C@H](O)[C@@H](O)[C@H](O)[C@H](O)CO)NC(=O)[C@H](CCC(=O)O)NC(=O)[C@H](CCC(=O)NC[C@H](O)[C@@H](O)[C@H](O)[C@H](O)CO)NC(=O)[C@H](CCC(=O)NC[C@H](O)[C@@H](O)[C@H](O)[C@H](O)CO)NC(=O)[C@H](CCC(=O)O)NC(=O)[C@H](CCC(=O)NC[C@H](O)[C@@H](O)[C@H](O)[C@H](O)CO)NC(=O)CC[C@H](NC(=O)c2ccc(NCc3cnc4nc(N)[nH]c(=O)c4n3)cc2)C(=O)O)C(=O)O)cs1)C(C)C` (stereo partly drawn) [EC0533], the “cytotoxic activity in the presence of an excess of a folate-fluorescein conjugate” value (shortened to “cytotoxic activity in the presence”) in series [1] is reported as “blocked”.
`CCCC(=O)OCN(C(=O)[C@@H](NC(=O)[C@H]1CCCCN1C)C(C)CC)[C@H](C[C@@H](OC(C)=O)c1nc(C(=O)N[C@@H](Cc2ccc(O)cc2)C[C@H](C)C(=O)NNC(=O)OCCSSC[C@H](NC(=O)[C@H](CC(=O)O)NC(=O)[C@H](CCCNC(=N)N)NC(=O)[C@H](CC(=O)O)NC(=O)CC[C@H](NC(=O)c2ccc(NCc3cnc4nc(N)[nH]c(=O)c4n3)cc2)C(=O)O)C(=O)O)cs1)C(C)C` (stereo partly drawn) [EC0305]: the fraction unbound is 0.362 in series [2] and 0.207 in series [3]. Moreover, in series [4], the “tolerability (percent weight change)” value is listed as “not well tolerated; also recorded: exceeded MTD”.
On to `CCCC(=O)OCN(C(=O)[C@@H](NC(=O)[C@H]1CCCCN1C)C(C)CC)[C@H](C[C@@H](OC(C)=O)c1nc(C(=O)N[C@@H](Cc2ccc(O)cc2)C[C@H](C)C(=O)NNC(=O)OCCSSC[C@H](NC(=O)[C@H](CCC(=O)NC[C@H](O)[C@@H](O)[C@H](O)[C@H](O)CO)NC(=O)[C@H](CCC(=O)O)NC(=O)[C@H](CCC(=O)NC[C@H](O)[C@@H](O)[C@H](O)[C@H](O)CO)NC(=O)[C@H](CCC(=O)NC[C@H](O)[C@@H](O)[C@H](O)[C@H](O)CO)NC(=O)[C@H](CCC(=O)O)NC(=O)[C@H](CCC(=O)NC[C@H](O)[C@@H](O)[C@H](O)[C@H](O)CO)NC(=O)CC[C@H](NC(=O)c2ccc(NCc3cnc4nc(N)[nH]c(=O)c4n3)cc2)C(=O)O)C(=O)O)cs1)C(C)C` (stereo partly drawn) [EC0530], for which, in series [1], the “cytotoxic activity in the presence” value is “blocked”.
`CCC(C)[C@H](NC(=O)[C@H]1CCCCN1C)C(=O)N(COC(=O)CC(C)C)[C@H](C[C@@H](OC(C)=O)c1nc(C(=O)N[C@@H](Cc2ccc(O)cc2)C[C@H](C)C(=O)NNC(=O)OCCSSC[C@H](NC(=O)[C@H](CC(=O)O)NC(=O)[C@H](CCCNC(=N)N)NC(=O)[C@H](CC(=O)O)NC(=O)CC[C@H](NC(=O)c2ccc(NCc3cnc4nc(N)[nH]c(=O)c4n3)cc2)C(=O)O)C(=O)O)cs1)C(C)C` (stereo partly drawn) [EC0510]: the “tolerability (percent weight change)” value in series [4] is “exceeded MTD”; in series [4] (listed as EC0310), “not well tolerated”.
In turn, `CCC(C)[C@H](NC(=O)[C@H]1CCCCN1C)C(=O)N(COC(=O)CC(C)C)[C@H](C[C@@H](OC(C)=O)c1nc(C(=O)N[C@@H](Cc2ccc(O)cc2)C[C@H](C)C(=O)NNC(=O)OCCSSC[C@H](NC(=O)[C@H](CCC(=O)NC[C@H](O)[C@@H](O)[C@H](O)[C@H](O)CO)NC(=O)[C@H](CCC(=O)O)NC(=O)[C@H](CCC(=O)NC[C@H](O)[C@@H](O)[C@H](O)[C@H](O)CO)NC(=O)[C@H](CCC(=O)O)NC(=O)[C@H](CCC(=O)NC[C@H](O)[C@@H](O)[C@H](O)[C@H](O)CO)NC(=O)CC[C@H](NC(=O)c2ccc(NCc3cnc4nc(N)[nH]c(=O)c4n3)cc2)C(=O)O)C(=O)O)cs1)C(C)C` (stereo partly drawn) [EC0543] showed an observed weight loss in series [4] (FIG. 9, 3 μmol/kg, nu/nu mice with KB tumors) of 15 to 18%. Also, the “cytotoxic activity in the presence” value in series [1] was “blocked”.
